Our source for the Km, kcat and kcat/Km values is publication PMC4335783, “A novel psychrophilic alkaline phosphatase from the metagenome of tidal flat sediments” (BMC Biotechnology, 2015).

In this series the test system is T1, O=[N+]([O-])c1ccc(OP(=O)(O)O)cc1.
T1 construct: printed as 527 residues, 56 kDa; C-terminal factor Xa site and His6 tag; E. coli BL21(DE3) periplasm; monomer
The series can be described thus: purified protein. In kind it is biochemical, uncultured bacterium. To be noted: 37 °C, pH 9.0, 50 mM DEA, 0.5 mM CaCl2.

Consider “mAP (metagenome-derived alkaline phosphatase) (uncultured bacterium)”, for which the Km – broadly, the substrate concentration at which the rate is half of its maximum – amounted to 180 µM; the kcat (in general, the maximal rate divided by the concentration of active sites) worked out at 952 s⁻¹; the catalytic efficiency (kcat/Km) (commonly the turnover number divided by the Michaelis constant) worked out at 5.3e+06 M⁻¹ s⁻¹.
